Where no end group is shown, it is not given here. [ ]: non-standard residue; d: D form. Phe(4-Br) = N[C@@H](Cc1ccc(Br)cc1)C(=O)O; pGlu = O=C1CC[C@@H](C(=O)O)N1; Nle = CCCC[C@H](N)C(=O)O; Aib = CC(C)(N)C(=O)O

The term Ki denotes the dissociation constant of the complex between target and ligand, obtained from inhibition or displacement. Read a low Ki as tighter binding.

Sequence of wild-type rat apelin receptor tagged at its C-terminus with EGFP (rat) (Q9JHG3 whole entry): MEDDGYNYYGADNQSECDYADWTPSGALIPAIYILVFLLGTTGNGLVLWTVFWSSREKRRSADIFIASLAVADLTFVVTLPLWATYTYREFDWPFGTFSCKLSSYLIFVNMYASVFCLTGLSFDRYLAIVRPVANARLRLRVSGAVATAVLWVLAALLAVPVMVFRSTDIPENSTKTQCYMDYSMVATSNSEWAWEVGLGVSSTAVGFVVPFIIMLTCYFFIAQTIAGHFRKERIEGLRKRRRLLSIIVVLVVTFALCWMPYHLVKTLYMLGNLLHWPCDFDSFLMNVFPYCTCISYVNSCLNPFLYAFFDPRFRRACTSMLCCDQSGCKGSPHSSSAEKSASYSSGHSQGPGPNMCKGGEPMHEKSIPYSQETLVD

This test addresses wild-type rat apelin receptor tagged at its C-terminus with EGFP (rat) (UniProt Q9JHG3). The test is described as follows: displacement of 0.2 nM [125I]-pyr-1-apelin-13; membranes of CHO cells expressing rat apelin receptor-EGFP.
For XRPRXSHKGPXXX (pGlu at 1; αMeLeu at 5; Nle at 11; Aib at 12; paraBrPhe at 13) [α-MeLeu5-pyr-1-apelin-13 A2 (14)], the Ki was 0.17 nM.

Take XRPRXSHKGPXXX (pGlu at 1; NMeLeu at 5; Nle at 11; Aib at 12; paraBrPhe at 13) [N-MeLeu5-pyr-1-apelin-13 A2 (10)]: the Ki was 0.1 nM.

For the molecule XRPXLSHKGPXXX (pGlu at 1; αMeArg at 4; Nle at 11; Aib at 12; paraBrPhe at 13) [α-MeArg4-pyr-1-apelin-13 A2 (12)], the Ki came out at 0.56 nM and the factor of weaker affinity compared to 1 turned out to be 2 fold.

XRPRXSHKGPXXX (pGlu at 1; D-Leu at 5; Nle at 11; Aib at 12; paraBrPhe at 13) [D-Leu5-pyr-1-apelin-13 A2 (8)] displayed a Ki of 0.12 nM. This counts as sub-nanomolar.

On to [pGlu]RP[azaArg]LSHKGP[Nle][Aib][Phe(4-Br)] [azaArg4-pyr-1-apelin-13 A2 (16)], for which the inhibition constant Ki stood at 1 nM and the factor of weaker affinity compared to 1 is 3 fold.

As to XRPRXSHKGPXXX (pGlu at 1; azaLeu at 5; Nle at 11; Aib at 12; paraBrPhe at 13) [azaLeu5-pyr-1-apelin-13 A2 (18)], the inhibition constant Ki is 0.13 nM.

(Values after patent US20200239537A1.)
